The text below walks through data of the supplement of paper PMC10126150.

± gives the standard deviation of the averaged measurements.
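Note: ATP exposure 15 min at 22 °C before imaging.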

This data set has as its system ATP. The experiment in a line: switch fluorescence ratio, 500 uM ATP over buffer (Cy3 cluster intensity, sum of 5 cycles each) (fold (ratio)); higher = stronger signal-on switching upon ATP binding; sequences stand for … in TCGTCGGCAGCGTCAGATGTGTATAAGAGACAGTTTTTTTTTTTTTTTTTTTTTTTTT…TC. The conditions noted are these: aptamer strand: ATP DNA aptamer (quencher-CACCTGGGGGAGTATTGCGGAGGAAGG + anchor), 100 nM annealed; ATP concentration: 500 uM. In outline: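 For every switch-domain sequence, the fluorescence ratio is the mean of per-cluster values, each being summed target-cycle Cy3 intensity over summed buffer-cycle Cy3 intensity. Clusters outside 100-1000 RFU were excluded. On a modified Illumina MiSeq flow-cell, the Cy3-labelled switching-strand clusters were annealed to 100 nM quencher-labelled ATP aptamer, imaged in selection buffer and then after 15 min with 500 uM ATP at 22 °C. Five such cycles were run, with NaOH stripping and re-annealing between them.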
On to GCAAACGGGG, for which the switch fluorescence ratio came to 1.07 ± 0.041.
Then TGTTTGTTTC, with 0.973 ± 0.033; and CATTTACACT, with 1.05 ± 0.059; and GGCATTATAA, with 0.99 ± 0.025.
Then TAATGAGTGG, with 1.0154 ± 0.001.
Consider AATACGGTCT, for which the switch fluorescence ratio turned out to be 1 ± 0.06.
Then GTTTTCAGGG, with 1.02 ± 0.037; and CTAATTTAGT, with 1.01 ± 0.014.
Then TCTTCGGTTT, with 1.11 ± 0.12.
Then TGTTTAAGAG, with 1 ± 0.023.
Consider TCGGAAAGGA, for which the switch fluorescence ratio was 0.9814 ± 0.0016.
Then TGCTTCATGT, with 0.985 ± 0.027.
Then ATTTACAGGT, with 1.033 ± 0.0098.
In the case of ATTCAAGCCT, the switch fluorescence ratio was determined as 1.15 ± 0.047.
Then CCACCTTACG, with 1.54 ± 0.077.
Then ATTGGCTTTT, with 0.965 ± 0.011; and TGGGGGAGTT, with 0.994 ± 0.026.
Regarding AGGGGTGTTG, the switch fluorescence ratio came out at 0.991 ± 0.032.
Then GCACCTTGAG, with 1.001 ± 0.0014.
Turning to CCGCCATTGG, the switch fluorescence ratio was 1.62 ± 0.069.
Then TTTGACTGAG, with 0.997 ± 0.023; and AAGTTGCGCT, with 1 ± 0.034; and AGCGAGGGGC, with 1.02 ± 0.035.
Then TTCATTTACA, with 1.04 ± 0.033.
Then TATTGAGAGT, with 0.991 ± 0.032.
For GGTCTCTGGA, the switch fluorescence ratio came to 1.01 ± 0.06.
Then GACGAAGGT, with 1.01 ± 0.052.
Then TTAGTTCCTT, with 1.01 ± 0.024.
Then AAAATATGG, with 0.997 ± 0.031; and TATCGCCCTC, with 1.07 ± 0.011; and AAGTTGGGGA, with 0.996 ± 0.021.
Take GAGTAAAGTT: the switch fluorescence ratio came out at 0.982 ± 0.02.
Then ATGTATGTTA, with 0.978 ± 0.055; and TTGACGAGTA, with 1.1 ± 0.13.
Then TCGCTATGCC, with 0.991 ± 0.13; and TACTGGTCCA, with 1.051 ± 0.0087.
Then GATGGTTGAA, with 0.984 ± 0.021; and CTAGGTGATC, with 1.07 ± 0.044; and GCTGTCATGA, with 0.9853 ± 0.0074.
Consider AGTATCGTGC, for which the switch fluorescence ratio worked out at 0.9968 ± 0.0098.
With AAAATTTCGC, the switch fluorescence ratio is 1.01 ± 0.018.
Consider ATAATTGGTG, for which the switch fluorescence ratio came out at 1.03 ± 0.018.
Then CGCAGCGATG, with 2.66 ± 0.11; and GCTGTAGGTG, with 1.039 ± 0.0033.
Turning to AATAGTGACG, the switch fluorescence ratio came out at 1.14 ± 0.28.
Then TAATTGGGTG, with 1.09 ± 0.031.
Then ATCGGCTCTC, with 1.03 ± 0.025.
Then GGGGGCTTTT, with 1.01 ± 0.034; and CGGACCGGGA, with 1.06 ± 0.012.
Take TTCAAATATA: the switch fluorescence ratio was found to be 1.003 ± 0.0017.
Then AGAATTAGAG, with 0.969 ± 0.054; and TGATTGTTAT, with 1.029 ± 0.0016.
Then TTTTAGGAGT, with 0.989 ± 0.037; and ACGTTTAGTG, with 1.02 ± 0.016; and ATTGAAGTGC, with 1.01 ± 0.02.
Then GGGCTAAGAG, with 1.05 ± 0.038.
Turning to TTGTTAGGGC, the switch fluorescence ratio was found to be 1.07 ± 0.017.
Regarding AGAGGGGGTT, the switch fluorescence ratio is 0.971 ± 0.035.
Then TATAAAAGGA, with 1 ± 0.019.
Then TTTTTAAGTT, with 1 ± 0.028.
Then TGAATCCTCG, with 1.05 ± 0.012.
Take GATAGGGCAT: the switch fluorescence ratio was found to be 1.02 ± 0.012.
Then TCTTTTGGAG, with 0.996 ± 0.045; and CGTCATCAGG, with 1.042 ± 0.0069; and CACTCATACT, with 1.16 ± 0.029.
Then GATGAAAAGT, with 0.976 ± 0.015.
ATGAGTCCGT: the switch fluorescence ratio is 1.16 ± 0.017.
Then TATGAGTTGC, with 1.03 ± 0.011; and GGACGGGGAC, with 1.12 ± 0.015; and ACAGCTGGGG, with 1.0159 ± 0.00055.
For the sequence CCTCGACAGC, the switch fluorescence ratio was found to be 3.43 ± 0.42.
Then GAGGGAGGGA, with 1.03 ± 0.059; and ATCGGTGTGT, with 0.989 ± 0.045; and AGGAGTGTTT, with 1 ± 0.037.
Consider TGTAGGTGGT, for which the switch fluorescence ratio worked out at 0.978 ± 0.016.
Then TCGGGGGGCC, with 1.02 ± 0.074; and TTAGTAATTC, with 1.12 ± 0.15.
Then GAGGGGGGAC, with 1.02 ± 0.032.
